For data set [1], the system named is phosphorylated peptide p-K2.
Data set [2] addresses tau-protein extracted from bovine brain followed by purification (not phosphorylated by TPK-I) (UniProt P29172).

Chain of tau-protein extracted from bovine brain followed by purification (not phosphorylated by TPK-I) (P29172 2-448): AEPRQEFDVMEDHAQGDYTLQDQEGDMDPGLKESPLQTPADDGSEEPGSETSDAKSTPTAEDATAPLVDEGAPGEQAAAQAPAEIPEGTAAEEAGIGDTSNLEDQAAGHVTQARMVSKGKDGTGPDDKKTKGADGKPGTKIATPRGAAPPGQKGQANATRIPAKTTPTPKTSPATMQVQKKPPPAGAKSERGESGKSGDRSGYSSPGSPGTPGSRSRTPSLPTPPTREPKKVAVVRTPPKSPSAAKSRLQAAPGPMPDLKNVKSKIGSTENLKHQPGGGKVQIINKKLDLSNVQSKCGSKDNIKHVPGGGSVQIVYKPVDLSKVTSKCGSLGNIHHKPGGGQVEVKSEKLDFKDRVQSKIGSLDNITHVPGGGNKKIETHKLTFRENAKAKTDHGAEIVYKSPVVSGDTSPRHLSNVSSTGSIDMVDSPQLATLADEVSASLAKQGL

For “recombinant human TPK-I expressed in Escherichia coli BL21(DE3) from pET3C/TPKI (partially purified)”, the phosphorylation of peptide entry in the data set on Peptide K2 was “that of K2 hardly proceeded”; in data set [1], “the phosphorylation of p-Ka proceeded”. For the same substance, in data set [2], the “phosphoric acid incorporated into tau-protein (phosphorylating method I)” value is 1.2 moles of phosphoric acid was incorporated into one molecule of tau-protein.
Turning to “recombinant human-originated tau-protein kinase I expressed in Sf9 insect cells (partially purified)”, the “initial speed of phosphorylation of peptide (phosphorylating method I)” value in the data set with Peptide K2 was “phosphorylation of K2 was slow and its initial speed was about one-tenth of that of p-K2”. Further, in data set [1], the “phosphorylation of peptide (phosphorylating method I)” value is “the progress of phosphorylation of p-K2 was clearly noted”. The “amount of phosphoric acid incorporated in tau-protein (phosphorylating method I, 32P)” value in data set [2] is recorded as “incorporation of tau-protein into phosphoric acid was confirmed”.
“tau-protein kinase II (TPK-II) purified from bovine brain microtubule”: in the data set with Peptide K2, the “phosphorylation of peptide (phosphorylating method II)” value is reported as “phosphorylated peptide (hereinafter, abbreviated as "p-K2") was obtained”.

These data come from patent US20020058637.
